Assays:
[1] = molecular target: T1, human RYK on the surface of human tumor cell lines (human, UniProt P34925 46-607); test: flow cytometry, MEC1 cells (CLL), 5 ug/ml 2-D11-Alexa647; line unmarked (no staining)
T1 construct: whole, on cells; Endogenous expression
Protocol: (§1) Table 1 provides the flow cytometry data on various cancer cell lines stained with fluorochrome-conjugated 2-D11, as depicted in FIG. 8. The name of each cell line is listed in the first column and the tissue of origin is listed in the second column. Binding of the 2-D11 mAb to human RYK was assessed by flow cytometric staining and analysis by staining on ice for 20 minutes with 5 μg/ml of 2-D11 anti-human RYK-Alexa647 conjugated mAb or equal amounts of isotype matched control mAb, washed, and analyzed. The median fluorescence intensity (MFI) of 2-D11 stained cells is listed in the middle column and the MFI of isotype control stained cells are listed in the in the adjacent column. Cell lines were scored as “++”, “+”, or neg (unmarked with “+”) lines based on the ratio of median fluorescence intensity (MFI) of stained cells relative to the MFI of isotype control stained cells (MFIR).
(§2) The name of each cell line is listed in the first column and the tissue of origin is listed in the second column. Binding of the 2-D11 mAb to human RYK was assessed by flow cytometric staining and analysis by staining on ice for 20 minutes with 5 μg/ml of 2-D11 anti-human RYK-Alexa647 conjugated mAb or equal amounts of isotype matched control mAb, washed and analyzed. […]

[2] = molecular target: T1, human RYK on the surface of human tumor …; test: flow cytometry, T47-D cells (breast), 5 ug/ml 2-D11-Alexa647
Protocol: as §1, §2

[3] = molecular target: T1, human RYK on the surface of human tumor …; test: flow cytometry, JURKAT cells (T-cell ALL), 5 ug/ml 2-D11-Alexa647; line unmarked (no staining)
Protocol: as §1, §2

[4] = molecular target: T1, human RYK on the surface of human tumor …; test: flow cytometry, MOLT4 cells (T-cell ALL), 5 ug/ml 2-D11-Alexa647; line unmarked (no staining)
Protocol: as §1, §2

[5] = molecular target: T1, human RYK on the surface of human tumor …; test: flow cytometry, EW36 cells (NHL), 5 ug/ml 2-D11-Alexa647; line unmarked (no staining)
Protocol: as §1, §2

[6] = molecular target: T1, human RYK on the surface of human tumor …; test: flow cytometry, K562 cells (CML), 5 ug/ml 2-D11-Alexa647
Protocol: as §1, §2

[7] = molecular target: T1, human RYK on the surface of human tumor …; test: flow cytometry, NCI H1155 cells (lung), 5 ug/ml 2-D11-Alexa647; line unmarked (no staining)
Protocol: as §1, §2

[8] = molecular target: T1, human RYK on the surface of human tumor …; test: flow cytometry, A549 cells (lung), 5 ug/ml 2-D11-Alexa647
Protocol: as §1, §2

[9] = molecular target: T1, human RYK on the surface of human tumor …; test: flow cytometry, RAJI cells (Burkitt NHL), 5 ug/ml 2-D11-Alexa647; line unmarked (no staining)
Protocol: as §1, §2

[10] = molecular target: T1, human RYK on the surface of human tumor …; test: flow cytometry, SK-OV-3 cells (ovarian), 5 ug/ml 2-D11-Alexa647; line unmarked (no staining)
Protocol: as §1, §2

[11] = molecular target: T1, human RYK on the surface of human tumor …; test: flow cytometry, SK-MES-1 cells (lung), 5 ug/ml 2-D11-Alexa647; line unmarked (no staining)
Protocol: as §1, §2

[12] = molecular target: T1, human RYK on the surface of human tumor …; test: flow cytometry, NCI H929 cells (melanoma as printed), 5 ug/ml 2-D11-Alexa647; line unmarked (no staining)
Protocol: as §1, §2

[13] = molecular target: T1, human RYK on the surface of human tumor …; test: flow cytometry, BT549 cells (breast), 5 ug/ml 2-D11-Alexa647
Protocol: as §1, §2

[14] = molecular target: T1, human RYK on the surface of human tumor …; test: flow cytometry, PC3 cells (prostate), 5 ug/ml 2-D11-Alexa647; line unmarked (no staining)
Protocol: as §1, §2

[15] = molecular target: T1, human RYK on the surface of human tumor …; test: flow cytometry, OVCAR4 cells (ovarian), 5 ug/ml 2-D11-Alexa647
Protocol: as §1, §2

[16] = molecular target: T1, human RYK on the surface of human tumor …; test: flow cytometry, SK-MEL-2 cells (skin), 5 ug/ml 2-D11-Alexa647; line unmarked (no staining)
Protocol: as §1, §2

[17] = molecular target: T1, human RYK on the surface of human tumor …; test: flow cytometry, H460 cells (lung), 5 ug/ml 2-D11-Alexa647
Protocol: as §1, §2

[18] = molecular target: T1, human RYK on the surface of human tumor …; test: flow cytometry, NALM6 cells (ALL), 5 ug/ml 2-D11-Alexa647; line unmarked (no staining)
Protocol: as §1, §2

[19] = molecular target: T1, human RYK on the surface of human tumor …; test: flow cytometry, SH-SY5Y cells (brain), 5 ug/ml 2-D11-Alexa647
Protocol: as §1, §2

[20] = molecular target: T1, human RYK on the surface of human tumor …; test: flow cytometry, RAMOS cells (Burkitt NHL), 5 ug/ml 2-D11-Alexa647; line unmarked (no staining)
Protocol: as §1, §2

T1 sequence (P34925 46-607 limits assumed, form in doubt): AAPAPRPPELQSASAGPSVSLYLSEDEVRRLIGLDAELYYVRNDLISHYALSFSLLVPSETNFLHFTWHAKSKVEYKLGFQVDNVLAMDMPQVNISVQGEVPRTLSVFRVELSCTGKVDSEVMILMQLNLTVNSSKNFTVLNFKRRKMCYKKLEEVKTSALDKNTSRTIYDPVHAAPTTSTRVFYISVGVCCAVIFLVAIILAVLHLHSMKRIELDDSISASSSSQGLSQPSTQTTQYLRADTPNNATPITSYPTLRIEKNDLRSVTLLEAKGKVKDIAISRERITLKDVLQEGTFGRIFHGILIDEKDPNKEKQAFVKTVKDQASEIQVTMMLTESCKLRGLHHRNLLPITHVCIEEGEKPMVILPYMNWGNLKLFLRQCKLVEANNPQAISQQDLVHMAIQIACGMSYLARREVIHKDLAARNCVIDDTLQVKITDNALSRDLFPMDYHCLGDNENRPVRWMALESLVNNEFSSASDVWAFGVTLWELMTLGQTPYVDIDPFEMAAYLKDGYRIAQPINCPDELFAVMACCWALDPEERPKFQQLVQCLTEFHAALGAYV

B1: 2-D11 anti-human RYK mAb (antibody, V domains shown)
VH: QVQLKESGPGLVAPSQSLSITCSVSGFSLNDYGVNWVRQPPGKDLEWLGMIWGDGVTEYNSTLKSRLSISKDNSKSQVFLKMNNLQTEDTARYYCVRQGSGVWFAHWGQGTLVSVSS
VL: DVLVTQTPLSLPVSLGDQASISCRSSQTIVHSNGNTYLEWYLQKPGQSPKLLIYKVSNRFSGVPDRFSGSGSGTDFTLKISRVEAEDLGIYYCFQGSHVPYTFGGGTKLEIK
notes: Mouse hybridoma mAb, kappa light chain, detected with anti-mouse IgG; also called mAb 2-D11; 2-D11 anti-human RYK-Alexa647 conjugated mAb
MFIR (MFI ratio to isotype control) [1]: 1.1 | MFIR (MFI ratio to isotype control) [2]: 2 | MFIR (MFI ratio to isotype control) [3]: 1.1 | MFIR (MFI ratio to isotype control) [4]: 0.9 | MFIR (MFI ratio to isotype control) [5]: 1.1 | MFIR (MFI ratio to isotype control) [6]: 1.5 | MFIR (MFI ratio to isotype control) [7]: 1.3 | MFIR (MFI ratio to isotype control) [8]: 1.5 | MFIR (MFI ratio to isotype control) [9]: 1 | MFIR (MFI ratio to isotype control) [10]: 1.1 | MFIR (MFI ratio to isotype control) [11]: 1.1 | MFIR (MFI ratio to isotype control) [12]: 1.2 | MFIR (MFI ratio to isotype control) [13]: 3.9 | MFIR (MFI ratio to isotype control) [14]: 1.2 | MFIR (MFI ratio to isotype control) [15]: 2.1 | MFIR (MFI ratio to isotype control) [16]: 1.1 | MFIR (MFI ratio to isotype control) [17]: 1.5 | MFIR (MFI ratio to isotype control) [18]: 1.3 | MFIR (MFI ratio to isotype control) [19]: 2 | MFIR (MFI ratio to isotype control) [20]: 1.1
